Measured values taken from paper PMC2894018 (2010).

Columns and labels:
[1] = biological target: HIV-1 Gag fused to the N- or C-terminal fragment of Venus (HIV-1); assay: split reporter (BiFC, NanoBiT); Venus BiFC in 293T cells cotransfected with VC and VN chimeric Vpr and Gag plasmids; fixed thirty-six hours after transfection; percent BiFC positive cells by flow cytometry
[2] = biological target: HIV-1 Gag fused to the N- or C-terminal fragment of Venus (HIV-1); assay: split reporter (BiFC, NanoBiT); Venus BiFC in HeLa cells cotransfected with VN and VC fusion plasmids; thirty-six to forty hours after transfection, fixed; percent BiFC positive cells by flow cytometry and fluorescence microscopy
[3] = biological target: HIV-1 Vpr Δ44 fused to the N- or C-terminal fragment of Venus (UniProt P12520); assay: BiFC (bimolecular fluorescence complementation), flow cytometry on cells; conditions: cells cotransfected with VC and VN fusions of the same Vpr mutant; vector control 0.1; parent: 35.7
[4] = biological target: T1, HIV-1 Vpr from NL43 (Vpr^wt) fused to the N- or C-terminal fragment of Venus (HIV-1 (NL43)), P12520; assay: split reporter (BiFC, NanoBiT); Venus BiFC in HeLa cells cotransfected with VN and VC fusion plasmids; thirty-six to forty hours after transfection, fixed; percent BiFC positive cells by flow cytometry and fluorescence microscopy; conditions: remark: other sources report otherwise
T1 chain: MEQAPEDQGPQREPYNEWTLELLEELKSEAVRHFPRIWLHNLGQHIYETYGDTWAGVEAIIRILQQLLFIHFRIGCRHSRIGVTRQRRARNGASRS

[5] = biological target: T1, HIV-1 Vpr from NL43 (Vpr^wt) fused to …; assay: as above; conditions: remark: other sources report otherwise
[6] = biological target: T1, HIV-1 Vpr from NL43 (Vpr^wt) fused to …; assay: split reporter (BiFC, NanoBiT); Venus BiFC competition: VC-Vpr and VN-Vpr plasmids cotransfected with increasing amounts of untagged Vpr plasmid or empty vector; flow cytometry thirty-six hours after transfection; BiFC positive cells with vector backbone set as 100%; conditions: remark: other sources report otherwise

Molecule: HIV-1 Vpr R80A fused to the N- or C-terminal fragment of Venus (from UniProt P12520 1-96) (natural protein)
- percent BiFC positive cells (with VC-Gag) [1]: 27%
- percent BiFC positive cells (with VN-Gag) [1]: 33%

Molecule: HIV-1 Vpr E48A fused to the N- or C-terminal fragment of Venus (from UniProt P12520 1-96) (natural protein)
- percent BiFC positive cells (with VC-Gag) [1]: 28%
- percent BiFC positive cells (with VN-Gag) [1]: 29%

Molecule: HIV-1 Vpr from NL43 (Vpr^wt) fused to the N- or C-terminal fragment of Venus (from UniProt P12520 1-96) (natural protein)
- percent BiFC positive cells (with VC-Gag) [1]: 27%
- percent BiFC positive cells (with VN-Gag) [1]: 31%
- percent fluorescent positive cells (venus-C-Gag and venus-N-Vpr^wt) [2]: 29%
- percent fluorescent positive cells (venus-N-Gag and venus-C-Vpr^wt) [2]: 34%

Molecule: HIV-1 Gag fused to the N- or C-terminal fragment of Venus (natural protein)
- percent BiFC positive cells [2]: 30%

Molecule: HIV-1 Vpr from NL43 (Vpr^wt) fused to the N- or C-terminal fragment of Venus (from UniProt P12520) 44del
- response (% BiFC positive cells) [3]: 1

B1: HIV-1 Vpr from NL43 (Vpr^wt) fused to the N- or C-terminal fragment of Venus, P12520 1-96 (natural protein)
chain: T1 chain
- percent BiFC positive cells [4]: 35%
- percent BiFC positive cells [5]: 26%

B2: untagged HIV-1 Vpr (expressed from pVpr), P12520 1-96 (natural protein)
chain: T1 chain
- percent BiFC positive cells left (VC-Vpr with VN-Vpr, vector backbone as 100%) at a ratio of 1:10 [6]: < 20%
- percent reduction of BiFC positive cells (VC-Vpr with VN-Vpr) at a ratio of 1:2.5 [6]: 40%
